Test results published in patent EP4782466A1, “FUSION PROTEIN FOR INACTIVATING CORONAVIRUS AND USE THEREOF” (priority 2023, dated 2025).

Legend:
Experiment in all cases: cell-based or functional assay
[1] = target: S protein of SARS-CoV-2 Omicron BA.1 (SARS-CoV-2 BA.1)
[2] = target: S protein of SARS-CoV-2 Omicron BQ.1 (SARS-CoV-2 BQ.1)
[3] = target: S protein of SARS-CoV-2 Omicron BA.2 (SARS-CoV-2 BA.2)
[4] = target: S protein of SARS-CoV-2 Delta (B.1.617.2) (SARS-CoV-2 Delta (B.1.617.2))
[5] = target: S protein of SARS-CoV-2 Omicron BA.2.2 (SARS-CoV-2 BA.2.2)
[6] = target: S protein of SARS-CoV-2 Alpha (B.1.1.7) (SARS-CoV-2 Alpha (B.1.1.7))
[7] = target: S protein of SARS-CoV-2 Gamma (P.1) (SARS-CoV-2 Gamma (P.1))
[8] = target: S protein of SARS-CoV-2 Omicron BA.2.75 (SARS-CoV-2 BA.2.75)
[9] = target: S protein of SARS-CoV-2 Lambda (SARS-CoV-2 Lambda)
[10] = target: S protein of SARS-CoV-2 Omicron BA.5 (SARS-CoV-2 BA.5)
[11] = target: S protein of SARS-CoV-2 Omicron BA.4.6 (SARS-CoV-2 BA.4.6)
[12] = target: S protein of SARS-CoV-2 Beta (B.1.351) (SARS-CoV-2 Beta (B.1.351))
[13] = target: S protein of SARS-CoV-2 Omicron BA.2.12.1 (SARS-CoV-2 BA.2.12.1)
[14] = target: S protein of SARS-CoV-2 Omicron XBB (SARS-CoV-2 XBB)
[15] = target: S protein of SARS-CoV-2 Omicron BA.3 (SARS-CoV-2 BA.3)
[16] = target: S protein of SARS-CoV-2 Omicron BF.7 (SARS-CoV-2 BF.7)
[17] = target: S protein of SARS-CoV-2 Omicron BA.2.9 (SARS-CoV-2 BA.2.9)

| Substance | IC50, inhibition of pseudovirus infection (Caco-2, luciferase) [1] [nM] | IC50, inhibition of pseudovirus infection (Caco-2, luciferase) [2] [nM] | IC50, inhibition of pseudovirus infection (Caco-2, luciferase) [3] [nM] | IC50, inhibition of pseudovirus infection (Caco-2, luciferase) [4] [nM] | IC50, inhibition of pseudovirus infection (Caco-2, luciferase) [5] [nM] | IC50, inhibition of pseudovirus infection (Caco-2, luciferase) [6] [nM] | IC50, inhibition of pseudovirus infection (Caco-2, luciferase) [7] [nM] | IC50, inhibition of pseudovirus infection (Caco-2, luciferase) [8] [nM] | IC50, inhibition of pseudovirus infection (Caco-2, luciferase) [9] [nM] | IC50, inhibition of pseudovirus infection (Caco-2, luciferase) [10] [nM] | IC50, inhibition of pseudovirus infection (Caco-2, luciferase) [11] [nM] | IC50, inhibition of pseudovirus infection (Caco-2, luciferase) [12] [nM] | IC50, inhibition of pseudovirus infection (Caco-2, luciferase) [13] [nM] | IC50, inhibition of pseudovirus infection (Caco-2, luciferase) [14] [nM] | IC50, inhibition of pseudovirus infection (Caco-2, luciferase) [15] [nM] | IC50, inhibition of pseudovirus infection (Caco-2, luciferase) [16] [nM] | IC50, inhibition of pseudovirus infection (Caco-2, luciferase) [17] [nM] | further results |
| --- | --- | --- | --- | --- | --- | --- | --- | --- | --- | --- | --- | --- | --- | --- | --- | --- | --- | --- |
| ACE2 protein alone (ACE2 peptidase domain alone) (from UniProt Q9BYF1 18-615) (receptor) | 18.7 | 21.8 | 12.6 | 4.85 | 11.9 | 6.2 | 15.1 | 26.5 | 12.8 | 15.3 | 65.9 | 16.1 | 10.6 | 12.7 | 6.51 | 101 | 7.63 | EC50, inactivation of pseudovirus (Caco-2, luciferase) [1]: 82.2 nM; EC50, inactivation of pseudovirus (Caco-2, luciferase) [2]: 149 nM; EC50, inactivation of pseudovirus (Caco-2, luciferase) [3]: 329 nM; EC50, inactivation of pseudovirus (Caco-2, luciferase) [4]: 605 nM; EC50, inactivation of pseudovirus (Caco-2, luciferase) [5]: 476 nM; EC50, inactivation of pseudovirus (Caco-2, luciferase) [6]: 243 nM; EC50, inactivation of pseudovirus (Caco-2, luciferase) [7]: 88.5 nM; EC50, inactivation of pseudovirus (Caco-2, luciferase) [8]: 677 nM; EC50, inactivation of pseudovirus (Caco-2, luciferase) [9]: 116 nM; EC50, inactivation of pseudovirus (Caco-2, luciferase) [10]: 336 nM; EC50, inactivation of pseudovirus (Caco-2, luciferase) [11]: 1160 nM; EC50, inactivation of pseudovirus (Caco-2, luciferase) [12]: 123 nM; EC50, inactivation of pseudovirus (Caco-2, luciferase) [13]: 76.1 nM; EC50, inactivation of pseudovirus (Caco-2, luciferase) [14]: 212 nM; EC50, inactivation of pseudovirus (Caco-2, luciferase) [15]: 52.1 nM; EC50, inactivation of pseudovirus (Caco-2, luciferase) [16]: 192 nM; EC50, inactivation of pseudovirus (Caco-2, luciferase) [17]: 407 nM |
| AL2E protein (ACE2-linker-EK1 fusion protein with (GGGGS)2 linker) (from UniProt Q9BYF1 18-615) | 0.18 | 0.4 | 0.16 | 0.32 | 0.4 | 0.22 | 0.39 | 0.69 | 0.09 | 0.1 | 1.03 | 0.27 | 0.26 | 0.64 | 0.58 | 0.46 | 0.43 |  |
